Experimental data: patent US20240239915A1 (Zymeworks, published 2024)
Like-named read-outs stand apart in the source and are kept apart here.

T1: Recombinant Human Fc gamma RIIIB/CD16b Protein (R&D Systems), His-tagged (human, UniProt O75015 20-208)
T1 construct: also called human FcγRIIIb; hFcγRIIIb
T1 chain: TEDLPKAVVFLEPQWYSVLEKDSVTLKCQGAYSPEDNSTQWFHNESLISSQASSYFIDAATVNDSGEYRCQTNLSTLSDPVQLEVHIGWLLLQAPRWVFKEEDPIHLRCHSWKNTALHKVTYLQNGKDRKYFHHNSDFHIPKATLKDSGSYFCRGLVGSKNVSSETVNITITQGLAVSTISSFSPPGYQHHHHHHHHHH

T2: Recombinant Human Fc gamma RIIA/CD32a (H167) Protein (R&D Systems), His-tagged (human, UniProt P12318 34-218)
T2 construct: also called human FcγRIIa (H167); hFcγRIIa (H167)
T2 sequence: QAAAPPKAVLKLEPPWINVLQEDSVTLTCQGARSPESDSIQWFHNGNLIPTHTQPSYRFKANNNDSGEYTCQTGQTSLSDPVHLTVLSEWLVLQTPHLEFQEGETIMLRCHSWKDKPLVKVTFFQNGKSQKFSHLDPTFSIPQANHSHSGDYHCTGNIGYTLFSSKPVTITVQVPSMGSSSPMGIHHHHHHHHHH

T3: Recombinant Human Fc gamma RIIB/C (CD32b/c) Protein (R&D Systems), His-tagged (human, UniProt P31994 46-217)
T3 construct: also called human FcγRIIb/c; hFcγRIIb/c
T3 sequence: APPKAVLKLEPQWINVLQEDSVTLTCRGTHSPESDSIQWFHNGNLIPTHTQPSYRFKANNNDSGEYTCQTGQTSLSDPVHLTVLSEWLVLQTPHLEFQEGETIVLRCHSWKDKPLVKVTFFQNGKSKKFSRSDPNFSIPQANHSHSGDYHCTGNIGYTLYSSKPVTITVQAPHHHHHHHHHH

T4: Recombinant Cynomolgus Fc gamma RIII/CD16 Protein (R&D Systems), His-tagged (cynomolgus, UniProt Q8SPW2 17-208)
T4 construct: also called cynomolgus FcγRIII; cFcγRIII
T4 chain: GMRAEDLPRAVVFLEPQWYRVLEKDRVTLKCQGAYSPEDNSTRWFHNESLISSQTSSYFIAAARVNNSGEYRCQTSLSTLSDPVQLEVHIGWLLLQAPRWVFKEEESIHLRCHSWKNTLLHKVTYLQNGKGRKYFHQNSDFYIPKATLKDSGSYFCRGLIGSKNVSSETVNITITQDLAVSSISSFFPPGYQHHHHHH

T5: Recombinant Cynomolgus Fc gamma RIIA/CD32a Protein (R&D Systems), His-tagged (cynomolgus)
T5 construct: also called cynomolgus FcγRIIa; cFcγRIIa
T5 chain: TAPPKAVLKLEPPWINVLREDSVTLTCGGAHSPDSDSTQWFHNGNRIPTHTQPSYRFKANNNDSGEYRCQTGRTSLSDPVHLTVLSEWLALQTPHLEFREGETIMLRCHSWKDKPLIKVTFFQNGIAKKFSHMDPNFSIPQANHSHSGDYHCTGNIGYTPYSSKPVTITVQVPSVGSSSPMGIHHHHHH

T6: Recombinant Cynomolgus Fc gamma RIIB protein (R&D Systems), His-tagged (cynomolgus)
T6 construct: also called cynomolgus FcγRIIb; cFcγRIIb
T6 chain: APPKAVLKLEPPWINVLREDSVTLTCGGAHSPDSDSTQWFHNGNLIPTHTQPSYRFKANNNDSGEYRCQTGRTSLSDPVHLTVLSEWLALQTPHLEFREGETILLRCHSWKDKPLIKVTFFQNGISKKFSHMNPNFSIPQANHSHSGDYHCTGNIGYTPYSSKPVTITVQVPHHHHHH

T7: Recombinant Human Fc gamma RIIA/CD32a (R167) Protein (R&D Systems), His-tagged (human, UniProt P12318 36-218)
T7 construct: also called human FcγRIIa; hFcγRIIa
T7 chain: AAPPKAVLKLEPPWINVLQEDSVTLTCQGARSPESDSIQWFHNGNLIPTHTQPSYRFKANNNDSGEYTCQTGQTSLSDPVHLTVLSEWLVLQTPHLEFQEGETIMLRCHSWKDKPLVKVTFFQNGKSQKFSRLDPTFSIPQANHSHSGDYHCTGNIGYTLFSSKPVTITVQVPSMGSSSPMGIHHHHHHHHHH

T8: Recombinant Cynomolgus Monkey Fc gamma RI/CD64 Protein, CF (R&D Systems), His-tagged (cynomolgus, UniProt P12314 11-288 (human entry))
T8 construct: also called cynomolgus FcγRI; cFcγRI
T8 chain: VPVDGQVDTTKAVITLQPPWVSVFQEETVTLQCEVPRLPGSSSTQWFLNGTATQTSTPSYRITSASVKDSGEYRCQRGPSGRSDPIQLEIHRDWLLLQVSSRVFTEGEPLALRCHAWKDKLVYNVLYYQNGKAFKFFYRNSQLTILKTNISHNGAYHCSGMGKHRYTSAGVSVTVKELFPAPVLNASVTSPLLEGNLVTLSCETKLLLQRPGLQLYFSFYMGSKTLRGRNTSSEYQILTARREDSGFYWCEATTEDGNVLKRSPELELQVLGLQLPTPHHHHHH


Key:
[1] = biological target: T1, Recombinant Human Fc gamma RIIIB/CD16b …; assay: SPR (Biacore T200); receptor immobilized directly on CM5 chip, antibody as analyte at 4.7 µM
[2] = biological target: T2, Recombinant Human Fc gamma RIIA/CD32a …; assay: as above
[3] = biological target: T9, Recombinant Human Fc gamma RIIIA/CD16a (V176F) Protein (R&D Systems), His-tagged (human, UniProt P08637 17-208); assay: as above
T9 construct: no further substitution applied; also called human FcγRIIIa (V176F); hFcγRIIIa (V176F)

[4] = biological target: T10, Recombinant Human Fc gamma RIIIA/CD16a protein (R&D Systems), His-tagged (human, UniProt P08637 17-208); assay: as above
T10 construct: also called human FcγRIIIa; hFcγRIIIa

[5] = biological target: T3, Recombinant Human Fc gamma RIIB/C …; assay: as above
[6] = biological target: T1, Recombinant Human Fc gamma RIIIB/CD16b …; assay: as above
[7] = biological target: T2, Recombinant Human Fc gamma RIIA/CD32a …; assay: as above; remark: listed apart in the source
[8] = biological target: T9, Recombinant Human Fc gamma RIIIA/CD16a …; assay: as above; remark: listed apart in the source
[9] = biological target: T10, Recombinant Human Fc gamma RIIIA/CD16a …; assay: as above; remark: listed apart in the source
[10] = biological target: T3, Recombinant Human Fc gamma RIIB/C …; assay: as above; remark: listed apart in the source
[11] = biological target: T4, Recombinant Cynomolgus Fc gamma …; assay: as above
[12] = biological target: T5, Recombinant Cynomolgus Fc gamma …; assay: as above
[13] = biological target: T6, Recombinant Cynomolgus Fc gamma RIIB …; assay: as above
[14] = biological target: T10, Recombinant Human Fc gamma RIIIA/CD16a …; assay: SPR (Biacore T200): human FcγRIIIa immobilised directly on a CM5 chip, antibody as analyte; RU plotted against antibody concentration
[15] = biological target: T4, Recombinant Cynomolgus Fc gamma …; assay: SPR (Biacore T200); receptor immobilized directly on CM5 chip, antibody as analyte at 4.7 µM
[16] = biological target: T5, Recombinant Cynomolgus Fc gamma …; assay: as above
[17] = biological target: T6, Recombinant Cynomolgus Fc gamma RIIB …; assay: as above
[18] = biological target: T1, Recombinant Human Fc gamma RIIIB/CD16b …; assay: SPR (Biacore T200): human FcγRIIIb immobilised directly on a CM5 chip, antibody as analyte; RU plotted against antibody concentration
[19] = biological target: T7, Recombinant Human Fc gamma RIIA/CD32a …; assay: SPR (Biacore T200); receptor immobilized directly on CM5 chip, antibody as analyte at 4.7 µM
[20] = biological target: T11, human FcRn (human neonatal Fc receptor large subunit p51 and beta2-microglobulin), biotinylated (human, UniProt P55899 24-297; P61769 21-119, biotinylated (site not stated)); assay: BLI (Octet RED384), biotinylated FcRn on streptavidin biosensor, binding at pH 6.0, dissociation at pH 7.4
[21] = biological target: T11, human FcRn (human neonatal Fc receptor …); assay: BLI (Octet RED384), biotinylated FcRn on streptavidin biosensor, binding and dissociation at pH 6.0
[22] = biological target: T8, Recombinant Cynomolgus Monkey Fc gamma …; assay: SPR (Biacore T200); His-tagged receptor captured on anti-His antibody chip, antibody as analyte at 4.7 µM
[23] = biological target: T11, human FcRn (human neonatal Fc receptor …); assay: BLI (Octet RED384), biotinylated FcRn on streptavidin biosensor, binding at pH 6.0, dissociation at pH 7.4; dissociation at pH 7.4 after binding at pH 6.0

T10 sequence (P08637 other isoform, or with tags, fused parts or gaps): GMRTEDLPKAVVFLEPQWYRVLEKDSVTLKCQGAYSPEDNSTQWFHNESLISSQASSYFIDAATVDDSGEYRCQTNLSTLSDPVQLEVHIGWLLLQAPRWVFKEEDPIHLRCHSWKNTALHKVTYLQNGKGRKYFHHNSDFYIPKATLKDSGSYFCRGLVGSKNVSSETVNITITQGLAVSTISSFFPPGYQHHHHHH
T9 sequence (P08637 other isoform, or with tags, fused parts or gaps V176F V176F): as the sequence (P08637 other isoform, or with tags, fused parts or gaps) above, with V160F counted along it

Row | binding response (RU) [1] | binding response (RU) [2] | binding response (RU) [3] | binding response (RU) [4] | binding response (RU) [5] | binding response (RU) [15] | binding response (RU) [16] | binding response (RU) [17] | binding response (RU) [19] | Kd [21] | binding response (RU) [22] | Binder | also measured
1 | 0.3 RU | 24 RU | -2.2 RU | 0.4 RU | 20 RU | 8.4 RU | 25 RU | 110 RU | – | – | – | L234A/L235A/D265A (LALA-DA) variant of IgG1 WT of the anti-EGFR antibody panitumumab (antibody, Mutations in both CH2 domains; positions are EU numbers) heavy: QVQLQESGPGLVKPSETLSLTCTVSGGSVSSGDYYWTWIRQSPGKGLEWIGHIYYSGNTNYNPSLKSRLTISIDTSKTQFSLKLSSVTAADTAIYYCVRDRVTGAFDIWGQGTMVTVSSASTKGPSVFPLAPSSKSTSGGTAALGCLVKDYFPEPVTVSWNSGALTSGVHTFPAVLQSSGLYSLSSVVTVPSSSLGTQTYICNVNHKPSNTKVDKRVEPKSCDKTHTCPPCPAPEAAGGPSVFLFPPKPKDTLMISRTPEVTCVVVAVSHEDPEVKFNWYVDGVEVHNAKTKPREEQYNSTYRVVSVLTVLHQDWLNGKEYKCKVSNKALPAPIEKTISKAKGQPREPQVYTLPPSREEMTKNQVSLTCLVKGFYPSDIAVEWESNGQPENNYKTTPPVLDSDGSFFLYSKLTVDKSRWQQGNVFSCSVMHEALHNHYTQKSLSLSPGK light: not shown | binding response (RU) [6]: 0.3 RU; binding response (RU) [7]: 24 RU; binding response (RU) [8]: -2.2 RU; binding response (RU) [9]: 0.4 RU; binding response (RU) [10]: 20 RU; binding response (RU) [11]: 8.4 RU; binding response (RU) [12]: 25 RU; binding response (RU) [13]: 110 RU; binding result [14]: no binding (tested: 4.7 µM); binding result [18]: no binding (tested: 4.7 µM)
2 | – | 160 RU | – | 420 RU | 78 RU | 540 RU | 94 RU | 270 RU | 330 RU | 5.5 nM | 3200 RU | L234A/L235A (LALA) variant of IgG1 WT of the anti-EGFR antibody panitumumab (antibody, Mutations in both CH2 domains) heavy: not shown light: not shown | koff [20]: 2.8 s⁻¹
3 | 250 RU | 1400 RU | 530 RU | 2400 RU | 650 RU | 2800 RU | 910 RU | 840 RU | 1700 RU | 5.8 nM | 6700 RU | IgG1 WT of the anti-EGFR antibody panitumumab (IgG2 Fc region replaced with a human wildtype IgG1 Fc region) (antibody, The legends were followed; also called anti-EGFR antibody IgG1 WT) heavy: not shown light: not shown | koff [23]: 2.1 s⁻¹
